Our source for the stoichiometry N (triskelia per cage) values is article PMC3341379.

The target of this experiment is Clathrin triskelion with attached Gd-DTPA-ITC, as assembled into clathrin cages (rat (endogenous in rat liver and brain)) (UniProt P11442). As to the kind of experiment: negative-stain transmission electron microscopy; cages assembled from modified triskelia mixed with AP-2 proteins 3:1 (v/v), dialysed against 50 mM MES Na pH 6.5, 100 mM NaCl, 2 mM DTT at 4°C; cages pelleted at 60,000 rpm and resuspended in 20 mM MES Na pH 6.2, 2 mM DTT; 0.05 mg/ml on carbon-coated grids, 1% uranyl acetate.

As for “Clathrin triskelion with attached Gd-DTPA-ITC, as assembled into clathrin cages (from UniProt P11442 1-1675; P08081 1-248) (complex)”, the stoichiometry N (triskelia per cage) came to 36.
